Data reported in patent publication US20140072613A1 (published 2014).

T1: EphB3(h) (human, UniProt P54753 581-998, limits assumed)
T1 sequence (looked up): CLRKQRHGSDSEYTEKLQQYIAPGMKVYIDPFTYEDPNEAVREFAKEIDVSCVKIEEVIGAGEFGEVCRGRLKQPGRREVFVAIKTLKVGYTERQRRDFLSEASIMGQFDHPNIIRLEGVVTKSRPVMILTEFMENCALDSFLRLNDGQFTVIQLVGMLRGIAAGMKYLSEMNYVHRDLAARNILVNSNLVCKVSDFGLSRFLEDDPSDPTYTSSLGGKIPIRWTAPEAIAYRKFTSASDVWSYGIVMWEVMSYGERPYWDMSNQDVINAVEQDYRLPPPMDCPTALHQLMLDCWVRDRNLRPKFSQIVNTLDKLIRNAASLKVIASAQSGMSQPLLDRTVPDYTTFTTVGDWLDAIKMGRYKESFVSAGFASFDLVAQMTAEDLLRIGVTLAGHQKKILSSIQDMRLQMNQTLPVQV

T2: PhKγ2(h) (human, UniProt P15735 1-406)
T2 sequence (looked up): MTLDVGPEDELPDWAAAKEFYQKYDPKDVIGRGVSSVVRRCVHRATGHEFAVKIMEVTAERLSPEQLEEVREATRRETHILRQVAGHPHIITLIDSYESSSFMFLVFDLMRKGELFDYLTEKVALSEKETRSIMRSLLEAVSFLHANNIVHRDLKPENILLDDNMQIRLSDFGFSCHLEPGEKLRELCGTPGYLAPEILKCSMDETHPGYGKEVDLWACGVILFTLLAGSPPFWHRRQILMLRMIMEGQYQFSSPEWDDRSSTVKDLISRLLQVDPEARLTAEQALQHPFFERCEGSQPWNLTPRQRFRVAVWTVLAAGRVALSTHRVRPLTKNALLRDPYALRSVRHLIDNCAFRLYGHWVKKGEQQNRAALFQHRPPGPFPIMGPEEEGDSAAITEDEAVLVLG

T3: MuSK(h) (human, UniProt O15146 517-869, limits assumed)
T3 sequence (looked up): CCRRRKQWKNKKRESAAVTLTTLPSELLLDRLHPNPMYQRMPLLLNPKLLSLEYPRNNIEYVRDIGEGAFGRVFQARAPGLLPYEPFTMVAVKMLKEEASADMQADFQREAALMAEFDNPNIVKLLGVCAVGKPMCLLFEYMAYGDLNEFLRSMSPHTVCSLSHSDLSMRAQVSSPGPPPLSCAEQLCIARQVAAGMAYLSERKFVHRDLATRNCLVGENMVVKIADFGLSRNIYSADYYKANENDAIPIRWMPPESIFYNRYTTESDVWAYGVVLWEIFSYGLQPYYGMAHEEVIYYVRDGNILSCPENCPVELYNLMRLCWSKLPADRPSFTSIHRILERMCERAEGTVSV

T4: GCK(h) (human, UniProt Q12851 1-820, limits assumed)
T4 sequence (looked up): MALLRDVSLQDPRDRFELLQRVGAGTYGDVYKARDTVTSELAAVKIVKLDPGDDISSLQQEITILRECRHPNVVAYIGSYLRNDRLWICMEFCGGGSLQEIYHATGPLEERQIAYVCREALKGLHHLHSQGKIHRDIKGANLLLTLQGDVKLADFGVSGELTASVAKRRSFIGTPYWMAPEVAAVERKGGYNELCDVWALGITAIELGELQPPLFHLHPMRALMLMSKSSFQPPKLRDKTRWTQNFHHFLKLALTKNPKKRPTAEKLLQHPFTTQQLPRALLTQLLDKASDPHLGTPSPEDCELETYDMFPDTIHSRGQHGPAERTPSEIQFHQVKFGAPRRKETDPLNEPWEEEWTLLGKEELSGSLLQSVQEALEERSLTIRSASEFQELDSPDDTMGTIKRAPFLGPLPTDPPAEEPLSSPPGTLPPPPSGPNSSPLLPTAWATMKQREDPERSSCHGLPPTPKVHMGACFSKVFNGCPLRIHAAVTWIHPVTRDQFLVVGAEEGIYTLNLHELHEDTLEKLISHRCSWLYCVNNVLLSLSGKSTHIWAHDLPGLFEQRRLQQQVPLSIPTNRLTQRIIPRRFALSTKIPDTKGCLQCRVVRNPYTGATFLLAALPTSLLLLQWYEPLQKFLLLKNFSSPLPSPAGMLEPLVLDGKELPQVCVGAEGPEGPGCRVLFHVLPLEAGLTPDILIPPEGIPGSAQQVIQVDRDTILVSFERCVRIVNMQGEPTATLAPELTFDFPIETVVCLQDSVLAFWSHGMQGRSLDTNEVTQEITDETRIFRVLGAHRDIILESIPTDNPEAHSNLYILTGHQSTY


Legend:
Test in all cases: cell-based or functional assay
[1] = biological target: WNK3(h) (human, UniProt Q9BYP7 1-434, limits assumed)
[2] = biological target: BRK(h) (human, UniProt Q13882 1-451, limits assumed)
[3] = biological target: MSSK1(h) (human, UniProt Q9UPE1 1-567, limits assumed)
[4] = biological target: T1, EphB3(h)
[5] = biological target: Aurora-B(h) (human, UniProt Q96GD4 1-344)
[6] = biological target: Abl(h) (human, UniProt P00519 27-1130, limits assumed)
[7] = biological target: Flt4(h) (human, UniProt P35916 800-1363, limits assumed)
[8] = biological target: Met(Y1248D)(h) (human, UniProt P08581-2 974-1408, limits assumed)
[9] = biological target: MLCK(h) (human)
[10] = biological target: T2, PhKγ2(h)
[11] = biological target: CDK1/cyclinB(h) (human, UniProt P06493 1-297; P14635 1-433)
[12] = biological target: EGFR(T790M,L858R)(h) (human, UniProt P00533 696-1210, limits assumed)
[13] = biological target: CDK6/cyclinD3(h) (human, UniProt Q00534 1-326; P30281 1-292)
[14] = biological target: FGFR3(h) (human, UniProt P22607 397-806)
[15] = biological target: T3, MuSK(h)
[16] = biological target: T4, GCK(h)

Binder	% activity, 100 µM [1] [%]	% activity, 100 µM [2] [%]	% activity, 100 µM [3] [%]	% activity, 100 µM [4] [%]	% activity, 100 µM [5] [%]	% activity, 100 µM [6] [%]	% activity, 100 µM [7] [%]	% activity, 100 µM [8] [%]	% activity, 100 µM [9] [%]	% activity, 100 µM [10] [%]	% activity, 100 µM [11] [%]	% activity, 100 µM [12] [%]	% activity, 100 µM [13] [%]	% activity, 100 µM [14] [%]	% activity, 100 µM [15] [%]	% activity, 100 µM [16] [%]
KAFAKLAARLYRKALARQLGVAA [MMI-0400]	74	18	75	47	150	84	89	31	1	38	74	78	85	0	93	66
FAKLAARLYRKALARQLGVAA [MMI-0300]	77	35	77	62	128	69	83	102	2	46	73	85	86	102	93	70
